Tests used:
[1] = target: T1, Glypican 3 Protein, Human, Recombinant (His Tag) (Sino Biological, Cat #10088-H08H) (human, UniProt P51654 25-559); test: sandwich-style epitope binning, Octet AHC biosensor, 300 nM human GPC3
T1 construct: Bought recombinant protein; also called Hu-GPC3 (10088-H08H); human GPC3; not shown: His tag

[2] = target: T1, Glypican 3 Protein, Human, Recombinant …; test: Octet QKe BLI, antibody on AHC probe, antigen in solution, 1:1 fit
[3] = target: T1, Glypican 3 Protein, Human, Recombinant …; test: Octet QKe BLI, IgG on AHC probe, GPC3 (Sino Biological) in solution, 1:1 fit
[4] = target: T2, GPC3 expressed on the cell surface of HepG2, Huh7 and Hep3B cells (human, UniProt P51654 25-554); test: flow cytometry, Fab titrated on Hep3B cells
T2 construct: Endogenous GPC3 of human liver tumour cell lines; also called Glypican 3 protein on the cell surface; endogenously expressed GPC3
T2 sequence (P51654 25-554 limits assumed): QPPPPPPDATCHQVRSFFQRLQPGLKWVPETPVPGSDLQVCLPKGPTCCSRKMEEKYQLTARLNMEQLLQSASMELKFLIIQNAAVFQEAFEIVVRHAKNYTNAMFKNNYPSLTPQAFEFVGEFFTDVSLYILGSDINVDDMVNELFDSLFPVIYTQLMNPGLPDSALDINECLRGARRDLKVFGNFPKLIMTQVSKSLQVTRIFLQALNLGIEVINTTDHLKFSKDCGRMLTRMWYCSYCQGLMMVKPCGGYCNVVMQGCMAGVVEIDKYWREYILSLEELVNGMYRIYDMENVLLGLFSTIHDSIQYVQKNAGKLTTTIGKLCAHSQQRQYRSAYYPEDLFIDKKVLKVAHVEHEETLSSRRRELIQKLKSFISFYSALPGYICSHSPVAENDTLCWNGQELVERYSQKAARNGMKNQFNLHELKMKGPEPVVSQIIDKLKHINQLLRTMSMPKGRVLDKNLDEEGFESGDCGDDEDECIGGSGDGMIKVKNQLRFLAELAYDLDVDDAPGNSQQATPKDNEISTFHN

[5] = target: T3, Fc-tagged human Glypican 3 protein (Acro Biosystems, cat #GP3-H5258) (human, UniProt P51654 25-559); test: ELISA, Fab titrated on coated Fc-tagged human GPC3, anti-Lambda HRP detection
T3 construct: Bought; also called recombinant human GPC3; not shown: Fc tag
T3 sequence (P51654 25-559 limits assumed): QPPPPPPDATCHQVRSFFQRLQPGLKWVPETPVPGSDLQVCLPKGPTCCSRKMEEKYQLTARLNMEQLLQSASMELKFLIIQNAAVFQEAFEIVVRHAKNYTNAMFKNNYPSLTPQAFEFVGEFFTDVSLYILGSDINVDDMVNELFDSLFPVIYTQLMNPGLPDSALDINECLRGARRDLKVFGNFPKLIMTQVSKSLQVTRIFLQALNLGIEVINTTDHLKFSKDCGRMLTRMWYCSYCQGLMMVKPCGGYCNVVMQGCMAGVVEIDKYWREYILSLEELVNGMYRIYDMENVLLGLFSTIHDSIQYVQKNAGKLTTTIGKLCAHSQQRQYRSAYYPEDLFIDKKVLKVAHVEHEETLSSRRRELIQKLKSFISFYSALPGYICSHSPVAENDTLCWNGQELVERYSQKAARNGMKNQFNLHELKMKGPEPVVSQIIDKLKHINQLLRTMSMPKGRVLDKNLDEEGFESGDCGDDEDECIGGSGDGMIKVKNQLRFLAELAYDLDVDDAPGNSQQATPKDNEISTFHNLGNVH

Cy-GPC3 (GP3-C5225) = Cy-GPC3 (GP3-C5225) (Cy (so in the source)); test: Octet QKe BLI, antibody on AHC probe, antigen in solution, 1:1 fit

T1 sequence (P51654 25-559 limits assumed): as above

B1: P19 anti-GPC3 scFv-Fc (Fc fusion)
VH: EVQLVESGGGLVKPGGSLRLSCAASGFTFSDYYMSWIRQAPGKGLEWVSYISSSGSTIYYADSVKGRFTISRDNAKNSLYLQMNSLRAEDTAVYYCASVYMDVWGKGTTVTVSS
VL: EIVMTQSPGTLSLSPGERATLSCRASQTVSSSSLAWYQQRPGQAPRLLIYETSSRATGIPDRFSGSGSGTDFTLTISRLEPEDFAIYYCQQKGDSGYTFGQGTKVEIK
notes: scFv-Fc, human IgG1 constant regions
B1: binds [1].

B2: P20 anti-GPC3 scFv-Fc (Fc fusion)
VH: EVQLVESGGGLVKPGGSLRLSCAASGFTFSDYYMSWIRQAPGKGLEWVSYISSSGSTIYYADSVKGRFTISRDNAKNSLYLQMNSLRAEDTAVYYCASVYMDVWGKGTTVTVSS
VL: SYELTQPPSVSVAPGQTARITCGGNNIGSKSVHWYQQKPGQAPVLVVYDDSDRPSGVPERFSGSNSGNTATLTISRVEAGDEADYYCQVWDNSSDHQVFGGGTKLTVL
notes: scFv-Fc, human IgG1 constant regions; The VH as printed is the same as that of P19
For B2, the Kd [2] was 100 nM.

B3: P17 WT IgG (antibody, V domains shown)
VH: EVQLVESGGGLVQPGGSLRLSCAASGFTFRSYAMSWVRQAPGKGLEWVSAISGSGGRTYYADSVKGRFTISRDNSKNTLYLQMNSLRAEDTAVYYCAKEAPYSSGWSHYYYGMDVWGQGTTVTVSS
VL: QSVLTQPPSVSGAPGQRVTISCTGSSSGYDVHWYQQLPGRAPKLLIYGSNNRPSGVPDRFSGSNSGTSASLAITGLQAEDEADYYCQSYDSSLNAIFGGGTKLTVL
notes: IgG
In the case of B3, the Kd [3] is reported as 5.99 nM, the koff [3] is reported as 0.000833 s⁻¹ and the kon [3] is reported as 139000 M⁻¹ s⁻¹.

B4: P17 WT Fab (Fab, V domains shown)
VH: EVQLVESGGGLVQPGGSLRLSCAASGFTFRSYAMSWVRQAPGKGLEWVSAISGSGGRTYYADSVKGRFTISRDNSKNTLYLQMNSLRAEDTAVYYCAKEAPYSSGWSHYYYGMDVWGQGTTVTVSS
VL: QSVLTQPPSVSGAPGQRVTISCTGSSSGYDVHWYQQLPGRAPKLLIYGSNNRPSGVPDRFSGSNSGTSASLAITGLQAEDEADYYCQSYDSSLNAIFGGGTKLTVL
notes: Fab format, lambda light chain (detected with an anti-Lambda antibody)
Binder B4 has an EC50 [4] of 21.3 ng/mL and an EC50 [5] of 191 ng/mL.

B5: P17-15D5 Fab (Fab, V domains shown)
VH: EVQLVESGGGLVQPGGSLRLSCAASGFTFANYAMSWVRQAPGKGLEWVSDVSASGVGTYYADSVKGRFTISRDNSKNTLYLQMNSLRAEDTAVYYCAKEVDFKLGWMHYYYGMDVWGQGTTVTVSS
VL: QSVLTQPPSVSGAPGQRVTISCTGSSSGYDVHWYQQLPGRAPKLLIYGSNNRPSGVPDRFSGSNSGTSASLAITGLQAEDEADYYCQSYDSSLNAIFGGGTKLTVL
notes: Fab format
With B5 the EC50 [4] was 9.7 ng/mL and the EC50 [5] was 9 ng/mL.

B6: P17-16A11 IgG (antibody, V domains shown)
VH: EVQLVESGGGLVQPGGSLRLSCAASGFTFDRYAMSWVRQAPGKGLEWVSSLSASGSGTYYADSVKGRFTISRDNSKNTLYLQMNSLRAEDTAVYYCAKEYDFSYGWMHYYYGMDVWGQGTTVTVSS
VL: QSVLTQPPSVSGAPGQRVTISCTGSSSGYDVHWYQQLPGRAPKLLIYGSNNRPSGVPDRFSGSNSGTSASLAITGLQAEDEADYYCQSYDSSLNAIFGGGTKLTVL
notes: IgG
B6 was tested, and the Kd [3] was 0.00103 nM, the koff [3] was 1.87e-07 s⁻¹ and the kon [3] was 182000 M⁻¹ s⁻¹.

B7: P17-16E6 Fab (Fab, V domains shown)
VH: EVQLVESGGGLVQPGGSLRLSCAASGFTFRKYAMSWVRQAPGKGLEWVSSLSASGSATYYADSVKGRFTISRDNSKNTLYLQMNSLRAEDTAVYYCAKEADYSMGWMHYYYGMDVWGQGTTVTVSS
VL: QSVLTQPPSVSGAPGQRVTISCTGSSSGYDVHWYQQLPGRAPKLLIYGSNNRPSGVPDRFSGSNSGTSASLAITGLQAEDEADYYCQSYDSSLNAIFGGGTKLTVL
notes: Fab format
Binder B7 has an EC50 [4] of 8.5 ng/mL and an EC50 [5] of 9.6 ng/mL.

B8: P17-16A1 Fab (Fab, V domains shown)
VH: EVQLVESGGGLVQPGGSLRLSCAASGFTFKRYAMSWVRQAPGKGLEWVSSVSSSGTGTYYADSVKGRFTISRDNSKNTLYLQMNSLRAEDTAVYYCAKEYDYGLGWMHYYYGMDVWGQGTTVTVSS
VL: QSVLTQPPSVSGAPGQRVTISCTGSSSGYDVHWYQQLPGRAPKLLIYGSNNRPSGVPDRFSGSNSGTSASLAITGLQAEDEADYYCQSYDSSLNAIFGGGTKLTVL
notes: Fab format
B8 was tested, and the EC50 [4] was 7.4 ng/mL and the EC50 [5] was 9.3 ng/mL.

B9: P17-16A11 Fab (Fab, V domains shown)
VH: EVQLVESGGGLVQPGGSLRLSCAASGFTFDRYAMSWVRQAPGKGLEWVSSLSASGSGTYYADSVKGRFTISRDNSKNTLYLQMNSLRAEDTAVYYCAKEYDFSYGWMHYYYGMDVWGQGTTVTVSS
VL: QSVLTQPPSVSGAPGQRVTISCTGSSSGYDVHWYQQLPGRAPKLLIYGSNNRPSGVPDRFSGSNSGTSASLAITGLQAEDEADYYCQSYDSSLNAIFGGGTKLTVL
notes: Fab format
B9 gave an EC50 [4] of 8.3 ng/mL and an EC50 [5] of 8.7 ng/mL.

B10: P17-16A1 IgG (antibody, V domains shown)
VH: EVQLVESGGGLVQPGGSLRLSCAASGFTFKRYAMSWVRQAPGKGLEWVSSVSSSGTGTYYADSVKGRFTISRDNSKNTLYLQMNSLRAEDTAVYYCAKEYDYGLGWMHYYYGMDVWGQGTTVTVSS
VL: QSVLTQPPSVSGAPGQRVTISCTGSSSGYDVHWYQQLPGRAPKLLIYGSNNRPSGVPDRFSGSNSGTSASLAITGLQAEDEADYYCQSYDSSLNAIFGGGTKLTVL
notes: IgG
B10 showed a Kd [3] of 0.00117 nM, a koff [3] of 2.51e-07 s⁻¹ and a kon [3] of 215000 M⁻¹ s⁻¹.

B11: P17-16E6 IgG (antibody, V domains shown)
VH: EVQLVESGGGLVQPGGSLRLSCAASGFTFRKYAMSWVRQAPGKGLEWVSSLSASGSATYYADSVKGRFTISRDNSKNTLYLQMNSLRAEDTAVYYCAKEADYSMGWMHYYYGMDVWGQGTTVTVSS
VL: QSVLTQPPSVSGAPGQRVTISCTGSSSGYDVHWYQQLPGRAPKLLIYGSNNRPSGVPDRFSGSNSGTSASLAITGLQAEDEADYYCQSYDSSLNAIFGGGTKLTVL
notes: IgG
B11 gave a Kd [3] of 0.00133 nM, a koff [3] of 2.76e-07 s⁻¹ and a kon [3] of 208000 M⁻¹ s⁻¹.

B12: P17-13F3 Fab (Fab, V domains shown)
VH: EVQLVESGGGLVQPGGSLRLSCAASGFTFEGYAMSWVRQAPGKGLEWVSNVSGSGDGTYYADSVKGRFTISRDNSKNTLYLQMNSLRAEDTAVYYCAKEYDYKTGWMHYYYGMDVWGQGTTVTVSS
VL: QSVLTQPPSVSGAPGQRVTISCTGSSSGYDVHWYQQLPGRAPKLLIYGSNNRPSGVPDRFSGSNSGTSASLAITGLQAEDEADYYCQSYDSSLNAIFGGGTKLTVL
notes: Fab format
Binder B12 has an EC50 [4] of 14.8 ng/mL and an EC50 [5] of 11.7 ng/mL.

B13: P17-11F4 Fab (Fab, V domains shown)
VH: EVQLVESGGGLVQPGGSLRLSCAASGFTFKDYAMSWVRQAPGKGLEWVSALSGSGGATYYADSVKGRFTISRDNSKNTLYLQMNSLRAEDTAVYYCAKEMDFRYGWMHYYYGMDVWGQGTTVTVSS
VL: QSVLTQPPSVSGAPGQRVTISCTGSSSGYDVHWYQQLPGRAPKLLIYGSNNRPSGVPDRFSGSNSGTSASLAITGLQAEDEADYYCQSYDSSLNAIFGGGTKLTVL
notes: Fab format
B13 showed an EC50 [4] of 9.9 ng/mL and an EC50 [5] of 9.5 ng/mL.

B14: P17-13G2 Fab (Fab, V domains shown)
VH: EVQLVESGGGLVQPGGSLRLSCAASGFTFGEYAMSWVRQAPGKGLEWVSGMSGSGDGTYYADSVKGRFTISRDNSKNTLYLQMNSLRAEDTAVYYCAKEMDYQLGWMHYYYGMDVWGQGTTVTVSS
VL: QSVLTQPPSVSGAPGQRVTISCTGSSSGYDVHWYQQLPGRAPKLLIYGSNNRPSGVPDRFSGSNSGTSASLAITGLQAEDEADYYCQSYDSSLNAIFGGGTKLTVL
notes: Fab format
B14 gave an EC50 [4] of 13 ng/mL and an EC50 [5] of 8.4 ng/mL.

B15: P17-15F8 Fab (Fab, V domains shown)
VH: EVQLVESGGGLVQPGGSLRLSCAASGFTFGNYAMSWVRQAPGKGLEWVSGVSGSGDGTYYADSVKGRFTISRDNSKNTLYLQMNSLRAEDTAVYYCAKEYDFGLGWMHYYYGMDVWGQGTTVTVSS
VL: QSVLTQPPSVSGAPGQRVTISCTGSSSGYDVHWYQQLPGRAPKLLIYGSNNRPSGVPDRFSGSNSGTSASLAITGLQAEDEADYYCQSYDSSLNAIFGGGTKLTVL
notes: Fab format
B15 was tested, and the EC50 [4] was 10.4 ng/mL and the EC50 [5] was 8.9 ng/mL.

B16: P17-8E12 Fab (Fab, V domains shown)
VH: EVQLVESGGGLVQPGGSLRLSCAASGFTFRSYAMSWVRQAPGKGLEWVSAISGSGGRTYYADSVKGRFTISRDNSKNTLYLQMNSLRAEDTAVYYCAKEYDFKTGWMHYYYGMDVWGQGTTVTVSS
VL: QSVLTQPPSVSGAPGQRVTISCTGSSSGYDVHWYQQLPGRAPKLLIYGSNNRPSGVPDRFSGSNSGTSASLAITGLQAEDEADYYCQSYDSSLNAIFGGGTKLTVL
notes: Fab format
B16 was tested, and the EC50 [4] was 8.3 ng/mL and the EC50 [5] was 9.6 ng/mL.

B17: P3 anti-GPC3 scFv-Fc (Fc fusion)
VH: QVQLQQSGPGLVKPSQTLSITCAISGDSVSSNSAAWNWIRQSPSRGLEWLGRTYYRSKWYNDYAVSVKSRITINPDTSKNQFSLQLNSVTPEDTAVYYCASSYYNGGYFDYWGQGTLVTVSS
VL: EIVLTQSPATLSVSPGGRATLSCRASQSVTTNLAWYQQKPGQAPRLLIYGASTRVTGVPRRFSGSGSGTDFTLTISSLQSEDSAVYYCQQYSGWGGFGGGTKVDIK
notes: as for B1
In the case of B17, the Kd (Cy-GPC3 (GP3-C5225)) is reported as 5.45 nM and the Kd [2] is reported as 20.1 nM.

B18: 71 anti-GPC3 scFv-Fc (Fc fusion)
VH: QVQLVESGGGVVQPGRSLRLSCAASGFTFSSYAMHWVRQAPGKGLEWVAVISYDGSNKYYADSVKGRFTISRDNSKNTLYLQMNSLRAEDTAVYYCARGGDGYNAAFDIWGQGTMVTVSS
VL: NFMLTQPPSVSESPGKTVTISCTGSSGSIASNYVQWYQQRPGSAPTTVIYEDNQRPSGVPDRFSGSIDSSSNSASLTISGLKTEDEADYYCQSYDSSKHYVFGTGTKVTVL
notes: as for B1
B18: binds [1].

B19: P10 anti-GPC3 scFv-Fc (Fc fusion)
VH: EVQLVQSGAEVKKPGSSVKVSCKASGGTFRSYAISWVRQAPGQGLEWMGGIIPIFGTANYAQKFQGRVTITADELTSTAYMELSSLRSEDTAVYYCASRIGQWPTPFDYWGQGTLVTVSS
VL: QSVLTQPPSVSVAPGKTARITCGGNNIGSKSVHWYQQKPGQAPVLVIYYDSDRPSGIPERFSGSNSGNTATLTISRVEAGDEADYYCQVWDSSSDHPVFGGGTKLTVL
notes: as for B1
B19 was tested, and the Kd (Cy-GPC3 (GP3-C5225)) was 1.28 nM and the Kd [2] was 2.85 nM.

Reference: patent publication US20260132214A1 (JECHO LABORATORIES, published 2026)
